Changes are numbered by the printed parent chain. Blank lines part the entries; values can stand above or below the binder they belong to.
Target: T1, human receptor tyrosine kinase like orphan receptor 1 (ROR1) expressed on cells (human, UniProt Q01973 30-937)
T1 construct: whole, on cells; also called human ROR1; ROR1-L cells
Assay: cell ELISA and flow cytometry on L cells transfected with human ROR1; also positive staining of ROR1+ lymphoma lines Jeko-1, SP-53, CA46

B1: anti-ROR1 monoclonal antibody A148 (antibody, V domains shown)
VH: DVQLQESGPGLVKPSQSLSLTCSVSGYSITSGYYWNWIRQFPGNKLEWMGYISNDGSNKYKPSLKNRISITRDTSKNQFFLKLNSVTTEDTATYYCARFPLINYDPWLAYWGQGTLVTVSA
VL: DVLMTQTPLSLPVSLGDQASISCRSSQNVVHRNGNTYLEWYLQKPGQSPKLLIYKVSNRFSGVPDRFSGSGSGTDFTLKISRVEAEDLGVYYCFQGSHVPWTFGGGTKLEIK
notes: Mouse monoclonal antibody from hybridoma
binding result: binds

B3: anti-ROR1 monoclonal antibody A142 (antibody, V domains shown)
VH: EVQLQQSGPDLVKPGASVKISCKASGYSFTGYYMHWVKQSHGKSLEWIGRVYPNNGGTSYNQKFKGKAILTVDKSSTTAYMELRSLTSEDSAVYYCALIHYYGFYSMDYWGQGTSVTVSS
VL: B1 VL with N28S, V29I, R32S, K112N
notes: as for B1
binding result: binds

B7: anti-ROR1 monoclonal antibody A97 (antibody, V domains shown)
VH: EVQLQQSGPELEKPGASVKISCKASGYSFIGYSMNWVRQSDGKSLEWIGNIDPYYGGTSYNLKFKGKATLTVDKSSSTAYMQLKSLTSEDSAVYYCARLGRGYFDYWGQGTTLTVSS
VL: DIVLTQSPATLSVTPGDSVSLSCRASQSITNNLHWYQQKSHESPRLLIKSASQSISGIPSRFSGSGSGTDFTLSINSVETEDFGMYFCQQSNSWPHTFGGGTKLEIK
notes: as for B1
binding result: binds

Other lines, results leading:

binding result: binds
B2: anti-ROR1 monoclonal antibody A130 (antibody, V domains shown)
VH: B1 VH with S25T, S53R, K59N, K61N, L108F
VL: ETTVTQSPASLSVATGEKVTIRCITSTDIDDDMNWYQQKPGEPPKLLISEANTLRPGVPSRFSSSGYGTDFVFTIENTLSEDVADYYCLQSYNMPLTFGAGTTLELK
notes: as for B1

binding result: binds
B4: anti-ROR1 monoclonal antibody A89 (antibody, V domains shown)
VH: B1 VH with N36S, N84K
VL: B1 VL with N28S, V29I, R32S, K112N
notes: Mouse monoclonal antibody from hybridoma (BALB/c mice immunized with ROR1-expressing L cells)

binding result: binds
B5: anti-ROR1 monoclonal antibody A129 (antibody, V domains shown)
VH: B1 VH with S25T, S53R, K59N, K61N, L108F
VL: B1 VL with T7A
notes: as for B1

binding result: binds
B6: anti-ROR1 monoclonal antibody A140 (antibody, V domains shown)
VH: B1 VH with S57N, T88A
VL: B1 VL with N28S, V29I, R32S, K112N
notes: as for B1

Source: patent US20250222105A1 (University of Texas, published 2025)
